Laboratory results as given in patent EP3988566A1 (AC Immune SA, dated 2022).

Biological target: Amyloid Beta (antigen of the Amyloid Beta ELISA) (UniProt P05067 672-713, limits assumed)
Experiment: Amyloid Beta ELISA, purified antibodies

Chain of Amyloid Beta (antigen of the Amyloid Beta ELISA) (P05067 672-713 limits assumed): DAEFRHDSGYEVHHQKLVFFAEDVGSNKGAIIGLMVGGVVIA

- fold reduction of binding activity against the chimeric control antibody C2 ChVHAF/ChVK: ~2 fold
B1: humanized antibody C2 HuVH2/HuVK3 (antibody, V domains shown)
VH: EVQLVESGGGLVQPGGSLRLSCAASGFTFSSYGMSWVRQAPGKGLEWVASINSNGGSTYYPDSVKGRFTISRDNAKNSLYLQMNSLRAEDTAVYYCASGDYWGQGTTVTVSS
VL: DIVMTQSPLSLPVTPGEPASISCRSSQSLVYSNGDTYLHWYLQKPGQSPKLLIYKVSNRFSGVPDRFSGSGSGTDFTLKISRVEAEDVGVYYCSQSTHVPWTFGQGTKVEIKR
